# Source: patent US20180208664A1 (APOGENIX, published 2018)
# Positions count from the first letter of the chain named. Ends that are not written are not given here.
# B1: rabbit monoclonal anti-CD95L antibody clone 145-12 (antibody, V domains shown)
# VH: QSLEESGGDLVKPGASLTLTCTASGFSFSSGYDMCWVRQAPGKGLEWIACIDTDNDATYYASWAKGRFTISKPSSTTVLLQITSLTAADTATYFCATTHGDYVAFKLWGPGTLVTVSS
# VL: QVLTQTASSVSAAVGGTVTINCQSSQSVYKNNDLSWYQQKPRQPPKLLIYQASKLASGVPSRFKGSGSGTQFTLTIGDLECDDGATYYCAGGYTASIYAFGGGTEVVVKG
# notes: Rabbit monoclonal IgG from a hybridoma subclone; Only VH and VL are tied to the clone by name; also called mAB145-12; mAb145-12
# B2: scFv-minibody SEQ ID 48 (scFv)
# scFv: QSLEESGGDLVKPGGTLTLTCTTSGFSFSDHYWMCWVRQAPGKGLEWIACIYTADSDSYYASWAKGRFTISKTSSTTVTLQMTSLTAADTATYFCARNGAYAGGPYGDLWGPGTLVTVSGGGSGGGSGGGSGGGSDIVMTQTPSSVEAAVGGTVTIKCQASQSIRTSLVWYQQKPGQPPKLLIYKASDLPSGVPSRFKGSGSGTQFTLTISDLESADAATYYCQSYDFRDTINNGHSFGGGTEVVVKGSGSSGQPREPQVYTLPPSREEMTKNQVSLTCLVKGFYPSDIAVEWESQGSPENNYKTTPPVLDSDGSFFLYSKLTVDKSRWQQGNVFSCSVMHEALHNHYTQKSLSLSPGSSSSSSAWSHPQFEK
# B3: scFv-minibody SEQ ID 38 (scFv)
# scFv: EVQLVESGGGLVQPGGSLRLSCAASGFSFSSGYDMCWVRQAPGKGLEWVACIDTDNDATYYASWAKGRFTISKDSSKNTLYLQMNSLRAEDTAVYYCARTHGDYVAFKLWGQGTLVTVSGGGSGGGSGGGSGGGSDIQMTQSPSSLSASVGDRVTITCQSSQSVYKNNDLSWYQQKPGKAPKLLIYQASKLASGVPSRFSGSGSGTDFTLTISSLQPEDFATYYCAGGYTASIYAFGQGTKVEIKGSGSSGQPREPQVYTLPPSREEMTKNQVSLTCLVKGFYPSDIAVEWESQGSPENNYKTTPPVLDSDGSFFLYSKLTVDKSRWQQGNVFSCSVMHEALHNHYTQKSLSLSPGSSSSSSAWSHPQFEK
# B4: scFv-minibody SEQ ID 39 (scFv)
# scFv: B3 scFv with S63D, W64S, A65V
# B5: scFv-minibody SEQ ID 40 (scFv)
# scFv: B3 scFv with C36S, A50S, C51A, S63D, W64S, A65V
# B6: scFv-minibody SEQ ID 49 (scFv)
# scFv: EVQLVESGGGLVQPGGSLRLSCAASGFSFSDHYWMCWVRQAPGKGLEWVACIYTADSDSYYASWAKGRFTISKDSSKNTLYLQMNSLRAEDTAVYYCARNGAYAGGPYGDLWGQGTLVTVSGGGSGGGSGGGSGGGSDIQMTQSPSSLSASVGDRVTITCKASQSIRTSLVWYQQKPGKAPKLLIYKASDLPSGVPSRFSGSGSGTDFTLTISSLQPEDFATYYCQSYDFRDTINNGHSFGQGTKVEIKGSGSSGQPREPQVYTLPPSREEMTKNQVSLTCLVKGFYPSDIAVEWESQGSPENNYKTTPPVLDSDGSFFLYSKLTVDKSRWQQGNVFSCSVMHEALHNHYTQKSLSLSPGSSSSSSAWSHPQFEK
# B7: scFv-minibody SEQ ID 50 (scFv)
# scFv: B6 scFv with S63D, W64S, A65V
# B8: scFv-minibody SEQ ID 51 (scFv)
# scFv: B6 scFv with C36S, A50S, C51A, S63D, W64S, A65V
# B9: APG101 (Fc fusion, UniProt P25445 26-173, looked up, not shown: a dimerising Fc or GST)
# chain: QVTDINSKGLELRKTVTTVETQNLEGLHHDGQFCHKPCPPGERKARDCTVNGDEPDCVPCQEGKEYTDKAHFSSKCRRCRLCDEGHGLEVEINCTRTQNTKCRCKPNFFCNSTVCEHCDPCTKCEHGIIKECTLTSNTKCKEEGSRSN
# B10: scFv-minibody SEQ ID 37 (scFv)
# scFv: QSLEESGGDLVKPGASLTLTCTASGFSFSSGYDMCWVRQAPGKGLEWIACIDTDNDATYYASWAKGRFTISKPSSTTVLLQITSLTAADTATYFCATTHGDYVAFKLWGPGTLVTVSGGGSGGGSGGGSGGGSQVLTQTASSVSAAVGGTVTINCQSSQSVYKNNDLSWYQQKPRQPPKLLIYQASKLASGVPSRFKGSGSGTQFTLTIGDLESDDGATYYCAGGYTASIYAFGGGTEVVGSGSSGQPREPQVYTLPPSREEMTKNQVSLTCLVKGFYPSDIAVEWESQGSPENNYKTTPPVLDSDGSFFLYSKLTVDKSRWQQGNVFSCSVMHEALHNHYTQKSLSLSPGSSSSSSAWSHPQFEK
# B11: rabbit monoclonal anti-CD95L antibody clone 119-4 (antibody, V domains shown)
# VH: QSLEESGGDLVKPGGTLTLTCTTSGFSFSDHYWMCWVRQAPGKGLEWIACIYTADSDSYYASWAKGRFTISKTSSTTVTLQMTSLTAADTATYFCARNGAYAGGPYGDLWGPGTLVTVSS
# VL: DIVMTQTPSSVEAAVGGTVTIKCQASQSIRTSLVWYQQKPGQPPKLLIYKASDLPSGVPSRFKGSGSGTQFTLTISDLECADAATYYCQSYDFRDTINNGHSFGGGTEVVVKG
# notes: Rabbit monoclonal IgG from a hybridoma subclone, detected with anti-rabbit IgG; Only VH and VL are tied to the clone by name; also called mAb119-4
# Target: T1, APG296 (human CD95L-RB69) (human)
# T1 construct: also called recombinant CD95L; human CD95L (APG296)
# T1 chain: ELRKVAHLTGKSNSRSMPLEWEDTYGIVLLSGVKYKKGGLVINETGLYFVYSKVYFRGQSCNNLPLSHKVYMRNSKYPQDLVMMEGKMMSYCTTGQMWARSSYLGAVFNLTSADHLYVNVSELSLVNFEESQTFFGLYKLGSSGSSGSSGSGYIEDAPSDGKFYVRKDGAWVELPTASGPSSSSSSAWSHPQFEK
# Test: ELISA, APG296 coated
row,Binder,binding result
1,B1,binds

# Target: T2, APG293 (human CD95L-T4) (human)
# T2 chain: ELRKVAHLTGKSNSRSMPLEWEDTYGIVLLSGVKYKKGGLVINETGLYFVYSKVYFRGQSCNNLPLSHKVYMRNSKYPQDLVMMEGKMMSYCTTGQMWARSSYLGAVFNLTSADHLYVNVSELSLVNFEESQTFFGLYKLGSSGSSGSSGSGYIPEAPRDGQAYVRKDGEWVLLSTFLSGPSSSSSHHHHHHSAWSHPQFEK
# Test: cell-based or functional assay
Binder,"EC50, Assay 3: antagonism of CD95L-T4-induced apoptosis on Jurkat A3 cells [µg/mL]","EC50, Assay 4: antagonism of CD95L-T4-induced apoptosis on Jurkat A3 cells [µg/mL]","EC50, Assay 5: antagonism of CD95L-T4-induced apoptosis on Jurkat A3 cells [µg/mL]","EC50, Assay 6: antagonism of CD95L-T4-induced apoptosis on Jurkat A3 cells [µg/mL]","EC50, Mean: antagonism of CD95L-T4-induced apoptosis on Jurkat A3 cells [µg/mL]","EC50, Assay 1: antagonism of CD95L-T4-induced apoptosis on Jurkat A3 cells [µg/mL]","EC50, Assay 2: antagonism of CD95L-T4-induced apoptosis on Jurkat A3 cells [µg/mL]"
B2,0.116,0.0908,0.0844,0.0975,0.097,,
B3,,,0.0957,0.111,0.11,0.118,0.114
B4,,,0.0865,0.0834,0.093,0.0994,0.105
B5,,,0.701,0.571,0.599,0.532,0.591
B6,0.172,0.144,0.117,0.127,0.14,,
B7,0.169,0.136,0.128,0.14,0.143,,
B8,1.55,2.26,1.48,1.74,1.76,,
B9,0.707,0.714,,,0.746,0.774,0.789
B10,,,0.113,0.118,0.118,0.124,0.117
B1,0.225,0.192,,,0.201,0.187,0.198

# Target: T3, peptide C-YMRNSKY (also: immobilized to BSA or ovalbumin)
# T3 construct: Printed as 'C-YMRNSKY'; the leading C is read as an added cysteine
# T3 peptide: CYMRNSKY
# Test: peptide ELISA, peptide on BSA or ovalbumin coated
# Description: (§1) Binding of the rabbit monoclonal antibody was detected by incubation with goat anti rabbit IgG-Peroxidase (Sigma; dilution 1:5000) and subsequent detection of the converted Peroxidase-substrate TMBone at a wavelength of 450 nm in an ELISA reader (FIG. 13).
# Binding of the rabbit monoclonal antibody was detected by incubation with goat anti rabbit IgG-Peroxidase (Sigma; dilution 1:5000) and subsequent detection of the converted Peroxidase-substrate TMBone at a wavelength of 450 nm in an ELISA reader (FIG. 14).
row,Binder,binding result
1,B11,no binding (tested: 2 µg/ml)
2,B1,no binding (tested: 2 µg/ml)

# Target: T4, APG707 (LIGHT-RB69) (human)
# T4 construct: Structurally related TNF-superfamily protein with the same trimerisation scaffold as APG296; also called human LIGHT (APG707)
# T4 chain: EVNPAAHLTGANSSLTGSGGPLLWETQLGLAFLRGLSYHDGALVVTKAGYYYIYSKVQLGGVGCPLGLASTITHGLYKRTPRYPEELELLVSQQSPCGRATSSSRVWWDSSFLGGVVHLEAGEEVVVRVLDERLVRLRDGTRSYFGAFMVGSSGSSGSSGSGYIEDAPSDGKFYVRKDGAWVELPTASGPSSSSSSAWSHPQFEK
# Test: competition ELISA, APG296 coated, APG707 as soluble competitor
# Description: as §1, with “For the competition ELISA, 96-well microtiter plates were coated with 10 μg/ml APG296 (CD95L-RB69). […] Binding” for “Binding”, “antibodies” for “antibody”, “6).” for “13).”
row,Binder,binding result
1,B11,no binding (tested: 100 µg/ml)
2,B1,no binding (tested: 100 µg/ml)

# Target: T5, epitope-comprising peptide YMRNSKYPQD (also: coupled to BSA)
# T5 peptide: YMRNSKYPQD
# Test: QCM (Attana A100), peptide-BSA immobilized, antibody as analyte
# Description: The A100 allows to investigate molecular interactions in real-time based on the Quartz Crystal Microbalance (QCM) technique. For this purpose, the respective epitope comprising peptide was coupled to BSA and subsequently immobilized to the surface of a carboxyl-activated QCM-chip. […] Binding (kₒₙ) and dissociation (koff) was analyzed in real time, and the respective KD was calculated (see table in FIG. 16).
row,Binder,binding result
1,B11,binds
2,B1,binds

# Target: T6, epitope-comprising peptide YMRNSKYPQD (also: coupled to BSA)
# T6 peptide: YMRNSKYPQD
# Test: QCM; immobilized BSA-coupled peptide
row,Binder,Kd [nM]
1,B11,1.2
2,B1,7.22
